Reference: article PMC11234460, “In Silico Discovery of Stapled Peptide Inhibitor Targeting the Nur77‐PPARγ Interaction and Its Anti‐Breast‐Cancer Efficacy” (Advanced Science, 2024)
Bridges are numbered along the chain shown (N, C = ends). [ ]: non-standard residue; d: D form. S5 = C=CCCC[C@](C)(N)C(=O)O

Target: LBD fragment of human Nur77 (residues 351–598) (human), P22736
Assay: SPR
Details: S-pentenyl-alanine (S5) at the i and i + 4 positions (Phe163 & Ile167), joined by ring-closing olefin metathesis (all-hydrocarbon staple), C-terminal primary amide X8 and X12 = S5 (S-pentenyl-alanine, replacing Phe163 and Ile167 of PPARγ), joined by an i,i+4 all-hydrocarbon staple (ring-closing olefin metathesis), free N-terminal amine, Tyr14 replaces Leu169, residues 15-25 are t, modification not given

Sequence of LBD fragment of human Nur77 (residues 351–598) (human), P22736 (P22736 351-598): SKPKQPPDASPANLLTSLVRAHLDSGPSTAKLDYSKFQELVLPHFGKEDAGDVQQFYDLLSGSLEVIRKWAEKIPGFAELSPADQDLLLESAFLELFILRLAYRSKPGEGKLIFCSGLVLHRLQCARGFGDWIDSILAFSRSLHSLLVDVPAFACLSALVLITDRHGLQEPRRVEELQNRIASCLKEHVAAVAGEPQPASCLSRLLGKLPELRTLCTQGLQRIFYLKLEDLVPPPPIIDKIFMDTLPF

koff: 0.052 s⁻¹
B1: ST-CY14 (stapled T-CY14), P37231 156-169 (peptide)
chain: H-CEGCKGF[S5]RRT[S5]RYYGRKKRRQRRR-NH2
modifications: staple 8-12; cysteine pairing not given here
